In patent US20170291930A1 (UNIVERSITY OF MARYLAND BALTIMORE, published 2017):
No end group written: not given here.

Target: purified recombinant Sap9 (C. albicans secreted aspartic protease 9) (Candida albicans)
Assay: cell-based or functional assay

Binder	intact peptide remaining after 2 h at 37 C with 3.13 ug/mL Sap9 (gel densitometry) [%]	intact peptide remaining after 2 h with 6.25 ug/mL Sap9 [%]
DSHAKRHHGYKRKFHELHHSHRGY [Hst-5 synthetic peptide K17L]	77	> 60
DSHAKRHHGYKRKFHEKHHSHRGY (also: hydrochloride salt) [parent Hst-5 peptide (Histatin-5)]	47	–
DSHARRHHGYKRKFHEKHHSHRGY [Hst-5 synthetic peptide K5R]	–	4.5
DSHAKRHHGYKRKFHERHHSHRGY [Hst-5 synthetic peptide K17R]	82	> 60
DSHAKRHHGYRRKFHEKHHSHRGY [Hst-5 synthetic peptide K11R]	–	20
